# Molecular target: fibronectin with extra-domain B (EDB-FN) (human (endogenous in U87MG and U251MG)) (UniProt P02751)
# Experiment: cellular uptake of rhodamine B-labelled micelles, confocal microscopy; U87MG and U251MG cells incubated 1 h at 37 °C with 100 µg/mL micelles holding 1.0, 2.5 or 5.0 wt% APTEDB-DSPE, washed with PBS, fixed; fluorescence normalised to DAPI (ImageJ); nontargeting PEG2000-DSPE micelles as …; also after EDB-FN siRNA in U87MG (uptake decreased) and over 5 min to 4 h
# UniProt P02751, sequence (P02751 32-2477): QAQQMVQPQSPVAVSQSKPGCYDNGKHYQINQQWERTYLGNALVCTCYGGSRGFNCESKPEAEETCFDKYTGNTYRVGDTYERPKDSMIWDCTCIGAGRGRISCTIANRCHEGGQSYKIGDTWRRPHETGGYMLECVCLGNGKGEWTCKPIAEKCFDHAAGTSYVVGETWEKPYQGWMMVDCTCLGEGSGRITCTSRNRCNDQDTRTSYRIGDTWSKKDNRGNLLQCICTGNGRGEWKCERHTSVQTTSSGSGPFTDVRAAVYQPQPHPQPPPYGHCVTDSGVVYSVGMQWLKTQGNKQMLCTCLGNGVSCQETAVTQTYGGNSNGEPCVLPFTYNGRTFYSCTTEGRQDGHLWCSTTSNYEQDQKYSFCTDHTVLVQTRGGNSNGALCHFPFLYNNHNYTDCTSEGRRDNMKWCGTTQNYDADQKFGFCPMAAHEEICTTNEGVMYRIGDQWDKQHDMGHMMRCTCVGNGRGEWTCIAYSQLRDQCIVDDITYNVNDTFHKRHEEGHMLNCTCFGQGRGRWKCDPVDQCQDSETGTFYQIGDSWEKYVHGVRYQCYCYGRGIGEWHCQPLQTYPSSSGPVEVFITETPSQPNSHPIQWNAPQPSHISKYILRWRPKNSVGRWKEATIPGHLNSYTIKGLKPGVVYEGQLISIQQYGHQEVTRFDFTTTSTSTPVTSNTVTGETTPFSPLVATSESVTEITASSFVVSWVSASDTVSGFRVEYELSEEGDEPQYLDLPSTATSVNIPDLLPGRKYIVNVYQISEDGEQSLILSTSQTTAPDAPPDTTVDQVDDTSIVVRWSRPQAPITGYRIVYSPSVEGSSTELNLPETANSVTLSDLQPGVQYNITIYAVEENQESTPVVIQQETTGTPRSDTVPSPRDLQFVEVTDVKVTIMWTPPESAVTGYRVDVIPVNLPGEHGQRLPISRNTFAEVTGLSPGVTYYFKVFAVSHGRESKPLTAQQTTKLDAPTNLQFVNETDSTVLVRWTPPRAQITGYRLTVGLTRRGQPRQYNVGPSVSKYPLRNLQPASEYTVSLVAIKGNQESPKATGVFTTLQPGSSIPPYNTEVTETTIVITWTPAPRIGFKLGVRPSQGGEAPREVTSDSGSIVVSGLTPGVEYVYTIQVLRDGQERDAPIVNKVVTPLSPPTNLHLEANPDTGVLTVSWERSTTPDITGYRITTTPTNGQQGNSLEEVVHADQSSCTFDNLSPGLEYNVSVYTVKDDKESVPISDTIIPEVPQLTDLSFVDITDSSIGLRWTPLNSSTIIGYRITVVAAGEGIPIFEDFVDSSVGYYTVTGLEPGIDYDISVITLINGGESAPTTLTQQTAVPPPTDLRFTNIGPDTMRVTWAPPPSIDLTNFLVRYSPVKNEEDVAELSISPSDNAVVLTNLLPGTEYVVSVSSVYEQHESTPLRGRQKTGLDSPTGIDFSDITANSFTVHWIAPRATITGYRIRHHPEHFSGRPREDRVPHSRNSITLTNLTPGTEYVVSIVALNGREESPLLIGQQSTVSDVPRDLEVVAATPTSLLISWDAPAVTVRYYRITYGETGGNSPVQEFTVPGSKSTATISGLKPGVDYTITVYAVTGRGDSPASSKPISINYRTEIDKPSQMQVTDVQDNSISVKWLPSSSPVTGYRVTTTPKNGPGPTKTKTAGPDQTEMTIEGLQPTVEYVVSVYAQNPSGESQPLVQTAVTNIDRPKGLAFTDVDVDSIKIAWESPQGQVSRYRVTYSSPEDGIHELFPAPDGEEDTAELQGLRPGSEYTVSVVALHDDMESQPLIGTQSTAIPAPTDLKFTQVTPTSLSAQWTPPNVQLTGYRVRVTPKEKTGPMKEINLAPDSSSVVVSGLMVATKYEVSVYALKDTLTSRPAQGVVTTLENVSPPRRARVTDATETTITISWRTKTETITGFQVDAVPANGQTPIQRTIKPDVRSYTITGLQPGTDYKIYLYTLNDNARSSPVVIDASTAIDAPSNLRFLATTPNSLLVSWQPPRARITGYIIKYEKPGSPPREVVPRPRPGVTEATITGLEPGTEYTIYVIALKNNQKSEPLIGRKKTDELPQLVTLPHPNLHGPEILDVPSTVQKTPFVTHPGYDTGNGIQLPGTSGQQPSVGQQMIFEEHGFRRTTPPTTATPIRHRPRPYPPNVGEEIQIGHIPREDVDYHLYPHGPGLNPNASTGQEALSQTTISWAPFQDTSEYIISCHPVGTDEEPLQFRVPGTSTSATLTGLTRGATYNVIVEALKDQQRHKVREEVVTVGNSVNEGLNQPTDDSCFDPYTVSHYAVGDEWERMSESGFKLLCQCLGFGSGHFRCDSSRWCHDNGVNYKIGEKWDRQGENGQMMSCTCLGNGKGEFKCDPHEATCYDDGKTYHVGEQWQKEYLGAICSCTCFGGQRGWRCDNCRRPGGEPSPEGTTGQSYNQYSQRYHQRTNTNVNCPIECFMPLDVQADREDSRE
substance,measurement,value
APTEDB-conjugated PEG2000-DSPE (EDB-FN-specific aptamer-like peptide on the surface of a micellar nano-DDS) (designed binder),"cellular uptake, fluorescence intensity normalised to DAPI (U87MG cells, 1.0 wt% APTEDB-DSPE)",166 A.U.
same,"cellular uptake, fluorescence intensity normalised to DAPI (U87MG cells, 2.5 wt% APTEDB-DSPE)",93.2 A.U.
same,"cellular uptake, fluorescence intensity normalised to DAPI (U87MG cells, 5.0 wt% APTEDB-DSPE)",56.7 A.U.
same,"cellular uptake, fluorescence intensity normalised to DAPI (U251MG cells, 1.0 wt% APTEDB-DSPE)",76.4 A.U.
same,"cellular uptake, fluorescence intensity normalised to DAPI (U251MG cells, 2.5 wt% APTEDB-DSPE)",129 A.U.
same,"cellular uptake, fluorescence intensity normalised to DAPI (U251MG cells, 5.0 wt% APTEDB-DSPE)",53.4 A.U.
